Experimental data published in patent publication US20240277831A1 (University of Washington, published 2024).

Key:
[1] = target: RBD-12GS-I53-50A trimeric component (SARS-CoV-2)
Monomeric SARS-CoV-2 RBD = Monomeric SARS-CoV-2 RBD (SARS-CoV-2, UniProt P0DTC2 328-531)
[2] = target: RBD-8GS-I53-50A trimeric component (SARS-CoV-2)

B1: monomeric human ACE2 (hACE2) ectodomain (receptor)
chain: STIEEQAKTFLDKFNHEAEDLFYQSSLASWNYNTNITEENVQNMNNAGDKWSAFLKEQSTLAQMYPLQEIQNLTVKLQLQALQQNGSSVLSEDKSKRLNTILNTMSTIYSTGKVCNPDNPQECLLLEPGLNEIMANSLDYNERLWAWESWRSEVGKQLRPLYEEYVVLKNEMARANHYEDYGDYWRGDYEVNGVDGYDYSRGQLIEDVEHTFEEIKPLYEHLHAYVRAKLMNAYPSYISPIGCLPAHLLGDMWGRFWTNLYSLTVPFGQKPNIDVTDAMVDQAWDAQRIFKEAEKFFVSVGLPNMTQGFWENSMLTDPGNVQKAVCHPTAWDLGKGDFRILMCTKVTMDDFLTAHHEMGHIQYDMAYAAQPFLLRNGANEGFHEAVGEIMSLSAATPKHLKSIGLLSPDFQEDNETEINFLLKQALTIVGTLPFTYMLEKWRWMVFKGEIPKDQWMKKWWEMKREIVGVVEPVPHDETYCDPASLFHVSNDYSFIRYYTGTLYQFQFQEALCQAAKHEGPLHKCDISNSTEAGQKLFNMLRLGKSEPWTLALENVVGAKNMNVRPLLNYFEPLFTWLKDQNKNSFVGWSTDWSPYADPLVPR
For B1, the Kd [1] was 78 nM, the koff [1] was 0.005 s⁻¹ and the kon [1] was 60000 M⁻¹ s⁻¹. The Kd (Monomeric SARS-CoV-2 RBD) was 69 nM, the koff (Monomeric SARS-CoV-2 RBD) was 0.005 s⁻¹ and the kon (Monomeric SARS-CoV-2 RBD) was 70000 M⁻¹ s⁻¹. For the same binder, the Kd [2] was 70 nM, the koff [2] was 0.004 s⁻¹ and the kon [2] was 60000 M⁻¹ s⁻¹.
